The supplement of paper PMC10065799, “High-throughput profiling of sequence recognition by tyrosine kinases and SH2 domains using bacterial peptide display” (eLife, 2023)

Target: Fes (UniProt P07332)
Assay: phosphorylation enrichment, bacterial display (enrichment ratio); higher = better substrate or ligand; peptides without Tyr show the background
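Also: 11-residue human phosphosite peptides and single-mutation variants displayed on the E. coli surface, counted by deep sequencing, each peptide's frequency after selection divided by its frequency in the unselected input library; frequency after pTyr selection over input frequency; kinase dosed for 20-30% of maximal phosphorylation in three min.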

Chain of Fes (P07332 whole entry, looked up): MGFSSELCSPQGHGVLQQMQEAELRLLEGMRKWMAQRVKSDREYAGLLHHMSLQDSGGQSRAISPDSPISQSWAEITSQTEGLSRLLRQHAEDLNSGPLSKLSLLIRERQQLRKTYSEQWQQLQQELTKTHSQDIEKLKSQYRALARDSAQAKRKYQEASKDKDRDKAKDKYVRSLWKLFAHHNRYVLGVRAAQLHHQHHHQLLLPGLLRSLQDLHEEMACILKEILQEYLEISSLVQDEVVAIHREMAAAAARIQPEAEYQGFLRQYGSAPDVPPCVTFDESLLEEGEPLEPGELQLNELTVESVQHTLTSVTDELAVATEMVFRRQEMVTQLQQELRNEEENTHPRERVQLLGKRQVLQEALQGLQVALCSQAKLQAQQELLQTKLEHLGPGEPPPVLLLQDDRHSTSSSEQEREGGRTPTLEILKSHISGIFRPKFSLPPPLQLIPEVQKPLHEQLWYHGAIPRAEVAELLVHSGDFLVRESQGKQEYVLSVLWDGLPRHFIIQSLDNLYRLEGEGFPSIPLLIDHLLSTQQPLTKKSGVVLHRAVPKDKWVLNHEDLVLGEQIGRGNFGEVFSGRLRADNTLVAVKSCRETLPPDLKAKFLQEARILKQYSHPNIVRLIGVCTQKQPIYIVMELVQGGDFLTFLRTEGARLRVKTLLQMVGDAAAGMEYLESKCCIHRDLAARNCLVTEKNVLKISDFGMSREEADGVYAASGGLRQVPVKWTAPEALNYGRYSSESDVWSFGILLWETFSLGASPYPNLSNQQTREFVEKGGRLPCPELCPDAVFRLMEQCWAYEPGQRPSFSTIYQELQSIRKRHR

| Sequence | phosphorylation enrichment |
| --- | --- |
| LLNPRYNLPLD [TOM1L1_Y109] | 0.952 |
| SDGHEYIFVDR [PDGFRB_Y579_P584R_YF] | 0.759 |
| ECKHLYSRKEG [PTPN11_Y263_L261H] | 0.579 |
| WDLPEYSYKDP [ITGA3_Y237_S235P] | 1.18 |
| AHPIIYTIIEA [PYKtide_no-pT_2014] | 1.21 |
| GKMPQYLESMQ [CYB5R3_Y130_S128P] | 0.701 |
| DFEGLYQEGGG [TMEM159_Y159_E154D] | 1.17 |
| FKDYFYCWNTS [AICDA_Y146_F151S] | 1.44 |
| WNDLDYVDSRR [GAA_Y407_M408V] | 0.94 |
| REQREYLEQLN [CCDC88B_Y1277_D1279E] | 0.939 |
| MKKMHYVDPDR [ST3GAL5_Y99_H104R] | 0.495 |
| TESALYGCTVL [KIAA1804_Y724] | 1.27 |
| FTTIHYNFMCN [TP53_Y234_C229Y_YF] | 1.4 |
| PRSRSYFSTSI [REPS2_Y462_S463F] | 0.791 |
| HLELNYKEDEY [MME_Y502_Y497H] | 0.994 |
| FQNGMYGLHQD [SGSH_Y89_H84Y_YF] | 0.709 |
| HVSISYDIPPT [GAB1_Y307] | 1.24 |

| Sequence | phosphorylation enrichment |
| --- | --- |
| IQRSLYDCPAS [PDGFRA_Y762_R764C] | 0.973 |
| IPPRRYFCSGV [STAMBP_Y36_R38C] | 0.739 |
| FEPDAYDDLDQ [ELP5_Y302_YF] | 1.3 |
| RQNQEYEILLD [KRT39_Y379] | 1.6 |
| AKYLGYPPPEI [KDR_Y357] | 0.849 |
| RLLVVYPWTQG [HBG2_Y36_R41G] | 0.932 |
| EEGRVYVFHLS [ITGAE_Y549_R552H_YF] | 1.25 |
| DKATEYIQYMR [MAX_Y70] | 0.622 |
| RSPLRYISILT [OR51B6_Y130_T131I] | 0.8 |
| LQTFRYHGLSM [PDHA1_Y289_H292L_YF] | 1.21 |
| QYQLKYSETPF [SIX6OS1_Y129] | 1.1 |
| KNSFKYYMSDD [ATRX_Y203_C200S] | 1.02 |
| TSQSQYFSFRE [CCDC170_Y323] | 0.891 |
| TEAEPYYCSLR [NPHS1_Y1138_R1140C] | 1.5 |
| EVKAQNEDIAQ [KRT1_Y358_Y358N] | 0.867 |
| RHPFFFAPELL [ALB_Y174_Y174F_YF] | 1.72 |

Test system: c-Src
Assay: as above

| Sequence | phosphorylation enrichment |
| --- | --- |
| LLNPRYNLPLD [TOM1L1_Y109] | 0.59 |
| SDGHEYIFVDR [PDGFRB_Y579_P584R_YF] | 0.517 |
| ECKHLYSRKEG [PTPN11_Y263_L261H] | 0.388 |
| WDLPEYSYKDP [ITGA3_Y237_S235P] | 0.495 |
| AHPIIYTIIEA [PYKtide_no-pT_2014] | 3.47 |
| GKMPQYLESMQ [CYB5R3_Y130_S128P] | 0.459 |
| DFEGLYQEGGG [TMEM159_Y159_E154D] | 0.923 |
| FKDYFYCWNTS [AICDA_Y146_F151S] | 0.885 |
| WNDLDYVDSRR [GAA_Y407_M408V] | 0.478 |
| REQREYLEQLN [CCDC88B_Y1277_D1279E] | 0.529 |
| MKKMHYVDPDR [ST3GAL5_Y99_H104R] | 0.322 |
| TESALYGCTVL [KIAA1804_Y724] | 4.74 |
| FTTIHYNFMCN [TP53_Y234_C229Y_YF] | 0.455 |
| PRSRSYFSTSI [REPS2_Y462_S463F] | 0.677 |
| HLELNYKEDEY [MME_Y502_Y497H] | 0.418 |
| FQNGMYGLHQD [SGSH_Y89_H84Y_YF] | 0.828 |
| HVSISYDIPPT [GAB1_Y307] | 0.478 |

| Sequence | phosphorylation enrichment |
| --- | --- |
| IQRSLYDCPAS [PDGFRA_Y762_R764C] | 0.81 |
| IPPRRYFCSGV [STAMBP_Y36_R38C] | 0.393 |
| FEPDAYDDLDQ [ELP5_Y302_YF] | 0.41 |
| RQNQEYEILLD [KRT39_Y379] | 0.733 |
| AKYLGYPPPEI [KDR_Y357] | 0.385 |
| RLLVVYPWTQG [HBG2_Y36_R41G] | 0.305 |
| EEGRVYVFHLS [ITGAE_Y549_R552H_YF] | 0.522 |
| DKATEYIQYMR [MAX_Y70] | 0.486 |
| RSPLRYISILT [OR51B6_Y130_T131I] | 0.322 |
| LQTFRYHGLSM [PDHA1_Y289_H292L_YF] | 0.356 |
| QYQLKYSETPF [SIX6OS1_Y129] | 0.519 |
| KNSFKYYMSDD [ATRX_Y203_C200S] | 0.44 |
| TSQSQYFSFRE [CCDC170_Y323] | 4.89 |
| TEAEPYYCSLR [NPHS1_Y1138_R1140C] | 3.96 |
| EVKAQNEDIAQ [KRT1_Y358_Y358N] | 0.427 |
| RHPFFFAPELL [ALB_Y174_Y174F_YF] | 0.932 |
